Results as given in PMC5241945, “A new enzyme-linked immunosorbent assay (ELISA) for human free and bound kallikrein 9” (Clinical Proteomics, 2017).

Target: T1, human recombinant serpinA3 inhibitor (R&D systems) (human, UniProt P01011 24-423)
T1 construct: alpha-1-antichymotrypsin (serpinA3), human, recombinant; also called a1-antichymotrypsin; ACT; source: bought: R&D Systems
T1 sequence (looked up): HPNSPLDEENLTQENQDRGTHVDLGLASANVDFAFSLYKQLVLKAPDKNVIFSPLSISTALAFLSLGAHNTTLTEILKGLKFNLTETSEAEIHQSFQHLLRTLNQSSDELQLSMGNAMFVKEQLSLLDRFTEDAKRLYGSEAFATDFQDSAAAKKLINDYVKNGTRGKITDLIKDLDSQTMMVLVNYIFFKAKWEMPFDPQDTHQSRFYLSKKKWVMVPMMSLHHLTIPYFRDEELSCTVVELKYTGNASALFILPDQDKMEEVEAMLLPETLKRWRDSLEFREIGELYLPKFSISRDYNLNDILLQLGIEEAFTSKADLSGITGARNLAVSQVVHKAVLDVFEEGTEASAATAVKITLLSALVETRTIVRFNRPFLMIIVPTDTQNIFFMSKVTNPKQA
Assay: ELISA; mat-KLK9 (0.5 μg) incubated alone or with recombinant serpinA3 at molar ratios KLK9/serpinA3 1/0.2, 1/0.5, 1/1 and 1/2 in 50 mM Tris-HCl pH 8.0, 1 h, 37 °C; the free KLK9 left was then measured by the sandwich ELISA (28ED436 / biotinylated 4ED28.2) as % recovery against the control without inhibitor
Settings: both partners purified

B1: mature form of KLK9 (mat-KLK9) (aa 23–250), recombinant (enzyme, human, UniProt Q9UKQ9 23-250, looked up)
chain: AIGAEECRPNSQPWQAGLFHLTRLFCGATLISDRWLLTAAHCRKPYLWVRLGEHHLWKWEGPEQLFRVTDFFPHPGFNKDLSANDHNDDIMLIRLPRQARLSPAVQPLNLSQTCVSPGMQCLISGWGAVSSPKALFPVTLQCANISILENKLCHWAYPGHISDSMLCAGLWEGGRGSCQGDSGGPLVCNGTLAGVVSGGAEPCSRPRRPAVYTSVCHYLDWIQEIMEN
notes: Human tissue kallikrein 9 (KLK9), UniProt Q9UKQ9 (KLK9_HUMAN); mature form aa 23-250 of the pre-pro-enzyme (1-250), lacking the signal peptide and the pro-segment; Glycosylated: migrates at ~42 kDa, ~25 kDa after PNGase F; also called mature KLK9; kallikrein 9
B1: binds.
